Here are results for four molecules from patent US20110287023A1 (AstraZeneca / MedImmune, published 2011).

Where only a bound is given, the exact number is not on record here.

The target of experiment [1] is T1, HMG1 B Box peptide amino acids 150-183.
T1 peptide: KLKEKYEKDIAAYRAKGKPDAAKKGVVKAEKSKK
In words: ELISA, HMG1 B Box peptide 150-183 coated at 10 ug/ml, antibody titrated, OD 450. The essentials: (§1)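 Plates blocked with 4% milk/PBS, or biotinylated peptides captured on avidin wells after 1% BSA blocking (30 min RT). Human anti-HMG1 antibodies titrated or serially diluted from 10 μg/ml, detected with anti-human IgG-HRP and TMB substrate, absorbance at 450 nm.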
A general note: In an ELISA, binding on a coated surface is turned into a signal by an enzyme label.

Experiment [2] deals with T2, recombinant HMG1 produced in E. coli as a calmodulin binding protein (CBP) fusion (human). In words: cell-based or functional assay.
In experiment [3] the target is T3, HMG1 B Box peptide amino acids 91-169.
T3 construct: also called HMG1 peptide 91-169
T3 peptide: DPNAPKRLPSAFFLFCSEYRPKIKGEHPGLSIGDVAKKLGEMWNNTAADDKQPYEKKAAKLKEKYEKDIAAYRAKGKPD
In words: ELISA, HMG1 B Box peptide 91-169 coated at 10 ug/ml, antibody titrated, OD 450. The method, boiled down: as §1

Experiment [4] addresses T2, recombinant HMG1 produced in E. coli as …. In words: BIAcore 3000, mAb amine-coupled to CM5, HMG1 injected, steady-state model. The essentials: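 Each mAb amine-coupled to a CM5 chip alongside a reference flow cell; two-fold serial dilutions of E. coli-expressed CBP-fusion HMG1 injected at slow flow. Surfaces regenerated with 1M NaCl-50 mM NaOH. Affinity derived from binding curves by a steady-state model.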
For orientation: In SPR one partner is held on a chip, and binding of the other changes the refractive index at the surface.

In experiment [5] the target is T3, HMG1 B Box peptide amino acids 91-169. In words: ELISA, HMG1 B Box peptide 91-169 coated at 10 ug/ml, antibody titrated, anti-human IgG-HRP, OD 450. How it is done: The plate was then blocked with 4% milk powder dissolved in PBS at 37° C. for 1 hour. The blocking solution was removed and replaced with human anti-HMG1 antibodies at various concentrations (see FIGS. 5A-B). […] HRP activity was detected with Sureblue HRP substrate (KPL). Plates were read at 450 nm using a Kinetic Microplate Reader (Molecular Devices). […] After washing and blocking with 1% BSA in PBS, the biotinylated peptides were individually added into the avidin coated wells and incubated for 30 min at room temperature. The serial diluted antibody G4, S16 and S6 at the initial concentration at 10 μg/ml were then transferred into the wells followed by adding mouse anti human IgG-HRP conjugate (Pierce). Detection was accomplished by adding 50 μl of tetramethylbenzidine (TMB) substrate (KPL) and the absorbance was read at 450 nm.

Experiment [6] addresses T4, HMG1 purified from calf (bovine) thymus (bovine, UniProt P10103 2-215).
T4 construct: also called Calf thymus HMGB1; thymus HMG1
T4 sequence (looked up): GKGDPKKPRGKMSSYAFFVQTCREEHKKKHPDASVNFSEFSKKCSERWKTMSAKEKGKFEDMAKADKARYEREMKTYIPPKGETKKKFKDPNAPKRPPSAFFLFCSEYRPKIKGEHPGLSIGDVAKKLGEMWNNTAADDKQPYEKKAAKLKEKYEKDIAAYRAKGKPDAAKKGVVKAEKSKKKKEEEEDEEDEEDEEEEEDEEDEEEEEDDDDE
In words: direct ELISA, calf thymus HMGB1 coated at 5 ug/mL, antibody at 10 ug/mL, anti-human kappa/lambda-HRP, OD 490. The essentials: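 Calf thymus HMGB1 or HMGB2 coated at 5 ug/mL in 10 mM PBS pH 7.2 overnight at 4 °C; anti-HMGB1 antibody added at 10 ug/mL final in PBS + 1% BSA, 1 h at room temperature. Detection with HRP anti-human kappa plus lambda (1:1000, 1 h), OPD substrate 20-30 min in the dark, H₂SO₄ stop, absorbance 490 nm.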

For experiment [7], the target named is T2, recombinant HMG1 produced in E. coli as …. In words: ELISA, coated RAGE-Fc, rHMG1 preincubated with antibody. How it is done: HMG1 binding to RAGE-Ig by ELISA: 50 μl/well of RAGE-Fc fusion protein at 5 μg/ml in PBS was added to each well of an ELISA plate and incubated overnight at 4° C. The plate was then blocked with 200 μl of 5% milk at 37° C. for 1 hr and washed 3× with PBS/Tween. 50 μl/well of diluted HMGB1 solution. For dose curves, HMGB1 concentrations started at 4 ug/ml in PBS. For antibody blocking the HMGB1 was preincubated in another plate with human anti-HMG1 antibodies or buffer, then transferred to the RAGE-coated plate. The plates were then incubated at room temperature for 2 hours and washed 3×. To detect any HMG1 bound to the immobilized RAGE-Fc a mixture of biotinylated mouse anti-HMG1 mAbs (10D4, 4H11, 3E10 and 5C12) each at 1 ug/ml, total Ab: 4 ug/ml, were added to each well and the plate was incubated for 1 hour at room temperature. The plate was then washed and Strepavidin-HPR was added to each well and incubated 15 min. The plate was then washed 3× and blotted dry. 100 μl of TMB developing agent was added and the plate read at 650 nm. Values were calculated as percent of inhibition with HMG1 alone equal to 0% inhibition. The data in FIG. 9 and summarized in Table 1 represent the average of two separate experiments.

T2 sequence (P09429 whole entry, the tested form may be a part): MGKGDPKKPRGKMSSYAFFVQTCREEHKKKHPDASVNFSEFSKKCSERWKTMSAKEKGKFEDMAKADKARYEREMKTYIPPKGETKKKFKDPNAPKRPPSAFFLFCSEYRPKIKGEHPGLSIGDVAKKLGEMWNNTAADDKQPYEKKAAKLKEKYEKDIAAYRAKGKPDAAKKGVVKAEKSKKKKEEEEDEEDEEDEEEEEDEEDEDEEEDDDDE

B1: human anti-HMG1 antibody E11 (antibody, IgG1, V domains shown)
VH: EVQLLESGGGLVQPGGSLRLSCAASGFTFSRYQMNWVRQAPGKGLEWVSSISPSGGHTHYADSVKGRFTISRDNSKNTLYLQMNSLRAEDTAVYYCAKDGRQGKISTVDHWGQGTLVTVSS
VL: DIQMTQSPGTLSLSPGERATLSCRASQSVRSNFLAWYQQKPGQAPRLLIYGASRRASGIPDRFSGSGFGADFTLSISRLEPEDFAVYYCQQYGSSPNTFGQGSRVEIK
notes: full length IgG1 made from a human Fab phage clone
Regarding B1, in experiment [1], the binding result was “no binding (tested: 10 ug/ml (log 1.0))”. In experiment [2], the “IC50 IL-6” value was determined as 1.22 nM and the “IC50 NO” value worked out at 101 µg/mL. In addition, the binding result in experiment [3] is reported as “no binding (tested: 10 ug/ml (log 1.0))”.

B2: human anti-HMG1 antibody G4 (antibody, IgG1, V domains shown)
VH: EVQLLESGGGLVQPGGSLRLSCAASGFTFSWYDMTWVRQAPGKGLEWVSSISPSGGYTKYADSVKGRFTISRDNSKNTLYLQMNSLRAEDTAVYYCTTEFYDYLDVWGKGTTVTVSS
VL: DIQMTQSPGTLSLSPGEGATLSCRASQSVSSTYLAWYQQKPGQAPRLLIYEASKRATGTPARFSGSGSGTDFTLSISSLEPEDFAVYYCQHRHNWPPQWTFGQGTKVEVK
notes: full length IgG1 made from a human Fab phage clone; also called ATCC PTA-6258
With B2, in experiment [1], the binding result was “no binding (tested: 10 ug/ml (log 1.0))”. In addition, the Kd – broadly, the equilibrium constant for the complex coming apart – in experiment [4] came out at 30 nM. In experiment [5], the binding result is given as “binds”. In addition, in experiment [2], the “IC50 IL-1β” value worked out at 5.01 µg/mL, the “IC50 IL-6” value turned out to be 0.9 nM, the “IC50 IL-12” value is 0.715 µg/mL and the “IC50 TNF-α” value stood at 5.51 µg/mL. Further, the binding result in experiment [6] is given as “binds”.

B3: human anti-HMG1 antibody S16 (antibody, IgG1, V domains shown)
VH: EVQLLESGGGLVQPGGSLRLSCAASGFTFSWYSMLWVRQAPGKGLEWVSYISPSGGFTNYADSVKGRFTISRDNSKNTLYLQMNSLRAEDTAVYYCARWDYNSGWYYDHWGQGTLVTVSS
VL: DIQMTQSPDTLSLSPGERATLSCRASQSVNSRNLAWYQQKPGQAPRLLIYGASTRATGIPDRFSGSVSGTEFTLTISSLQPDDFATYYCQQYNSYFTFGQGTKLEIK
notes: full length IgG1 made from a human Fab phage clone; also called ATCC PTA-6259
B3: the dissociation constant Kd in experiment [4] is 23 nM. The binding result in experiment [5] was “binds”. Besides, in experiment [2], the “IC50 IL-1β” value turned out to be 6.05 µg/mL, the “IC50 IL-6” value was 0.56 nM, the “IC50 IL-12” value stood at 1.24 µg/mL and the “IC50 TNF-α” value is 1.44 µg/mL. Moreover, the binding result in experiment [6] is given as “binds”. Also, in experiment [7], the “percent inhibition of HMG1 binding to RAGE” value is ≥ 35%.

B4: human anti-HMG1 antibody S6 (antibody, V domains shown)
VH: EVQLLESGGGLVQPGGSLRLSCAASGFTFSWYDMSWVRQAPGKGLEWVSRISPSGGYTMYADSVKGRFTISRDNSKNTLYLQMNSLRAEDTAVYYCARLEVGATSGGTAFDIWGQGTMVTVSS
VL: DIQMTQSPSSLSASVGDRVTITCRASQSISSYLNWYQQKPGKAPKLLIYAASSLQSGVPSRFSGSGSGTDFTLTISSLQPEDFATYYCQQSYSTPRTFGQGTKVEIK
notes: full length IgG1 made from a human Fab phage clone; two paragraphs print 'S4' for the PTA-6143 deposit; also called ATCC PTA-6143
For the molecule B4, the binding result in experiment [1] was “no binding (tested: 10 ug/ml (log 1.0))”. In experiment [4], the dissociation constant Kd was 39 nM. Further, in experiment [2], the “IC50 IL-1β” value turned out to be 0.0232 µg/mL, the “IC50 IL-6” value was found to be 0.174 nM, the “IC50 NO” value was found to be 4.15 µg/mL and the “IC50 TNF-α” value turned out to be 0.0182 µg/mL. In experiment [3], the binding result was “no binding (tested: 10 ug/ml (log 1.0))”. Also, the binding result in experiment [6] is on record as “binds”. Also, the “percent inhibition of HMG1 binding to RAGE” value in experiment [7] is ≥ 35%.
